Laboratory results taken from paper PMC7904446 (Cell Host & Microbe, 2021).

Biological target: recombinant SARS-CoV-2 spike protein receptor binding domain (RBD) (SARS-CoV-2, UniProt P0DTC2, biotin (the listed product is biotinylated))
Assay: SPR

Binder	Kd
ZDY28 Fab (Fab, V domains shown) VH: EVQLVQSGGGVVQPGRSLRLSCAASGFTFSSYGMHWVRQAPGKGLEWVAVISYDGSNKYYADSVKGRFTISRDNSKNTLYLQMNSLRAEDTAVYYCASRSTVVPAAIFAFDIWGQGTMVTVSS VL: not shown	19.2 nM
ZDY49 Fab (Fab, V domains shown) VH: EVQLVESGGGVVQPGRSLRLSCAASGFTFSSYGMHWVRQAPGKGLEWVAVISYDGSNKYYADSVKGRFTISRDNSKNTLYLQMNSLRAEDTAVYYCASRSTVVPAAIFAFDIWGQGTMVTVSS VL: not shown	42.3 nM
ZDY95 Fab (Fab, V domains shown) VH: EVQLVQSGGGVVQPGRSLRLSCAASGFTFSSYGMHWVRQAPGKGLEWVAVISYDGSNKYYADSVKGRFTISRDNSKNTLYLQMNSLRAEDTAVYYCASRSTVVPAAIFAFDIWGQGTMVTVSS VL: not shown	26.2 nM
ZDY20 Fab (Fab, V domains shown) VH: EVQLVETGGGLIQPGGSLRLSCAASGITVSSNYMSWVRQAPGKGLEWVSVIYSGGSTYYADSVKGRFTISRDNSKNTLYLQMNSLRAEDTAVYYCAREGLGDGYNAIAGLGFDLWGRGTLVTVSS VL: DIVMTQSPSSLSASVGDSVTITCQASQDINNYLNWYQQKPGRAPELLINDASNLEAGVPSRFSGSGSGTDFTLTISSLQTEDFATYYCQQYGSLPYTFGQGTKLDIR	74.9 nM
